# Changes are numbered by the printed parent chain. Numbers in names are those of the source. Where two headings read alike, the source gives them in different places.
# B1: H4xH8999P (antibody, human IgG4, V domains shown)
# VH: QLQLQESGPGLVQPSETLSLTCTVSGDSISSTAYHWDWIRQPPGKGLEWIGTITYNGNTYFNPSLKSRVTISVDTSKNQFSLKLLSMTAAETAVFYCARHLGYNSDFFPFDFWGQGTLVTVSS
# VL: not shown
# notes: H4xH: modified human IgG4 Fc
# B2: H2aM7791N (antibody, V domains shown)
# VH: QMQLQQWGAGLLKPSETLSLTCVVYGGSLNGYYWSWIRQSPGKGLEWIGEIDHSGSTNYNPSLKNRVTMSVDTSKIQFSLKLTSVTVADTAVYYCAREGLLPFDYWGQGTLVTVSS
# VL: EIVLTQSPGTLSLSPGERVTLSCRASQSVYSNYLAWYQQNPGQAPRLLIYAASNRATGIPDRFSGSGSGTDFTLTISRLEPEDFAVYYCHQYATSPWTFGQGTKVEIK
# notes: human variable regions, mouse IgG2a Fc; also called H2M7791N
# B3: H4H9008P (antibody, human IgG4 S228P, kappa, V domains shown)
# VH: EVQLVESGGGLVRPGGSLRLSCAASGFTFSTYAMAWVRQTPGKGLEGVSAIGGSGDSTYYVDSVKGRFTISRDNSKSTLFLQMNSLRAEDTAVYYCVKVRNYDGSFDIWGQGTMVTVSS
# VL: not shown
# notes: human IgG4 Fc
# B4: H4xH9008P (antibody, V domains shown)
# VH: B3 VH
# VL: not shown
# notes: human IgG4 Fc with 2 or more amino acid changes (US20100331527)
# B5: H4H9057P2 (antibody, human IgG4, V domains shown)
# VH: EVQLVESGGGLVQSGRSLRLSCAASGFTFDDYAMHWVRQPPGKGLEWVSGINWNRGRTGYADSVKGRFTISRDNAKNSLYLQMNDLRVEDTALYYCAKAEQWLDEGYFDYWGQGTLVTVSS
# VL: not shown
# notes: Fully human; H4H prefix (human IgG4 Fc)
# B6: H4H9068P2 (antibody, V domains shown)
# VH: EVQLVESGGGLVQRGGSLRLSCAASGFSFSSYAMNWVRQAPGKGLEWVSTISDSGGSTYYADSVKGRFTISRDNSKNTLSLQMNSLRAEDTAVYYCAKDQGGSYPYYFHYWGQGTLVTVSS
# VL: not shown
# notes: fully human; H4H prefix (human IgG4 Fc)
# B7: H2aM7795N (antibody, V domains shown)
# VH: EVQVVESGGGLVEPGRSLRLSCKASGFTFDDYAMHWVRQTPGKALEWVSGINWSGNNIGYADSVKGRFTISKDDAKNSLYLQMNSLRPEDTALYYCTKDISITGTLDAFDVWGQGTMVTVSS
# VL: DIQMTQSPISVSASVGDRVTITCRASQGISNWLAWYQQKPGIAPKLLIYSASSLQSGVPSRFRGSGSGTDFTLTIGSLQPEDFATYYCQQAHSFPLTFGGGTKVEIK
# notes: human variable regions, mouse IgG2a Fc; also called H2M7795N
# B8: H4H7795N2 (antibody, human IgG4 S228P, kappa, V domains shown)
# VH: B7 VH with N52S
# VL: DIQMTQSPISVSASVGDRVTITCRASQGISNWLAWYQQKPGIAPKLLIYSASSLQSGVPSRFRGSGSGTDFTLTIGSLQPEDFATYYCQQAHSFPLTFGGGTKVEIKR
# notes: human IgG4 Fc
# B9: H1M7789N (antibody, V domains shown)
# VH: EVQLLESGGGLVQPGGSLRLSCSASGFTFSSYTMNWVRQAPGKGLEWVSGISDTGGNTYYTDSVKGRFTVSRDNSKNTLSLQMNSLRAEDTAVYYCAKDQGGSYPYYFHYWGQGSLVTVSS
# VL: DIQMTQSPSSLSASVGDRVTITCRASQSISSYLIWYQQKPGTAPKFLIYAASSLQSGVPSRFSGCGSGTDFTLTISSLQPEDFATYYCQQSYSTPPITFGQGTRLEIK
# notes: human variable regions, mouse IgG1 Fc
# How the values were obtained:
# [1] = biological target: T1, recombinant human PD-1 expressed with a C-terminal myc-myc-hexahistidine tag (human); test: SPR (Biacore), mAb captured, hPD-1-MMH injected, 25 C;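 also: rate constants obtained by fitting sensorgrams to a 1:1 binding model, KD derived as kd/ka and half-life as ln2/(60·kd) in minutes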
# T1 construct: also called hPD-1-MMH; human PD-1-MMH
# [2] = biological target: T2, recombinant cynomolgus monkey PD-1 expressed with a C-terminal myc-myc-hexahistidine tag (cynomolgus monkey (Macaca fascicularis)); test: SPR (Biacore), MfPD-1-MMH, 25 C; end of range tied to H4xH8999P by Table 8
# T2 construct: Monomeric reagent; also called MfPD-1-MMH
# T2 chain: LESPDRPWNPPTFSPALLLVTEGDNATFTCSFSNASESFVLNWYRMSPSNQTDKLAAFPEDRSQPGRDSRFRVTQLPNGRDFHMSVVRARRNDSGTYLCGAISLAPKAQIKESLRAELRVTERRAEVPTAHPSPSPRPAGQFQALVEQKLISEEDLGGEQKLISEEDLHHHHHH
# [3] = biological target: T3, full length human PD-1 on HEK293/hPD-1 cells (human, UniProt Q15116 25-288); test: FACS, 100 nM mAb
# T3 sequence (Q15116 25-288 limits assumed): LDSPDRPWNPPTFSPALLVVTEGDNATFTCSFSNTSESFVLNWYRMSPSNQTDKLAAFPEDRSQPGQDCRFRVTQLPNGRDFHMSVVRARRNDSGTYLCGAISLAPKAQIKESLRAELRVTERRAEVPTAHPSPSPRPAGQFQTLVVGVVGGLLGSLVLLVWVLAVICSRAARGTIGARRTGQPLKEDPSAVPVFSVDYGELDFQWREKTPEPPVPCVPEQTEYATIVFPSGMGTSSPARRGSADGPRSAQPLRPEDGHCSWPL
# [4] = biological target: T4, PD-1 chimera: extracellular domain of human PD-1 with trans-membrane and cytoplasmic domains of human CD300a, … (human, UniProt Q9UGN4 181-299, limits assumed); test: cell-based or functional assay
# T4 sequence (Q9UGN4 other isoform, or with tags, fused parts or gaps mutant limits assumed, form in doubt): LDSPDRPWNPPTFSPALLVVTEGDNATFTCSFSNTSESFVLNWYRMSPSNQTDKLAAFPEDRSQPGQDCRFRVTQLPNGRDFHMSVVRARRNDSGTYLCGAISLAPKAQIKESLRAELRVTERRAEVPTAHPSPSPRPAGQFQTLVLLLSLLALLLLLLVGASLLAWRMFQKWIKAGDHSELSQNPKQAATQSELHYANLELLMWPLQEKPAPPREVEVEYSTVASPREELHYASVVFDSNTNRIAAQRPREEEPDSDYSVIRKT
# [5] = biological target: T3, full length human PD-1 on HEK293/hPD-1 …; test: FACS, 100 nM mAb, HEK293/hPD-1 cells;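 also: antibodies incubated with cells for 15-30 min on ice, bound antibody detected through a secondary F(ab′)2 by flow cytometry, with parental HEK293 cells tested in parallel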
# [6] = biological target: T3, full length human PD-1 on HEK293/hPD-1 …; test: FACS dose response, HEK293/hPD-1 cells; No EC50 determined
# [7] = biological target: T5, recombinant human PD-1 dimer expressed with a C-terminal mouse IgG2a Fc tag (human); test: BLI Octet: 100 nM hPD-1-mFc + 500 nM mAb to captured hPD-L1-hFc
# T5 construct: also called hPD-1-mFc
# [8] = biological target: T4, PD-1 chimera: extracellular domain of …; test: cell-based or functional assay; remark: listed apart in the source
# [9] = biological target: T3, full length human PD-1 on HEK293/hPD-1 …; test: FACS dose response, HEK293/hPD-1 cells; EC50 Inconclusive
# [10] = biological target: T6, recombinant human PD-1 expressed with a C-terminal human IgG1 Fc tag (human); test: SPR Biacore 3000: 100 nM hPD-1.hFc + 500 nM mAb to captured hPD-L1.mFc;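 also: inhibition study with anti-PD-1 mAbs, SPR responses tracked in real time and read at the close of each step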
# T6 construct: also called hPD-1-hFc; hPD1-hFc
# T6 sequence (chain, as listed by the source limits assumed): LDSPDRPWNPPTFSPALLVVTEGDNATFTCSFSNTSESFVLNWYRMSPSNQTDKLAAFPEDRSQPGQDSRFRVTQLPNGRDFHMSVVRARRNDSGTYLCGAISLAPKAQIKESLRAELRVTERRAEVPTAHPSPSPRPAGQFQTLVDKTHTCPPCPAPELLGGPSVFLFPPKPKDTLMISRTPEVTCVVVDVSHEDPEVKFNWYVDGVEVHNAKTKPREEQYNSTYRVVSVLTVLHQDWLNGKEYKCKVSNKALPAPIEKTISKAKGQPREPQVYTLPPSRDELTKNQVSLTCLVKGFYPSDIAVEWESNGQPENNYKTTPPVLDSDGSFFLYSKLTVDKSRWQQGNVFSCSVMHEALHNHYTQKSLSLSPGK
# [11] = biological target: T7, recombinant human PD-L1 expressed with a C-terminal mouse IgG2a Fc tag (human); test: SPR Biacore 3000: 500 nM mAb alone (no hPD-1.hFc) over captured hPD-L1.mFc surface, control
# T7 construct: also called hPD-L1-mFc; hPD-L1.mFc
# monkey PD-1 with mFc [12] = biological target: T8, monkey PD-1 with mFc (monkey); test: SPR, captured mAb, 25 C;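 also: purified anti-PD-1 antibodies tested on Biacore 4000 or T200 instruments, rate constants obtained via 1:1 binding model fit, with KD as kd/ka and half-life as ln2/(60·kd)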
# T8 construct: also called monkey PD-1-mFc; monkey PD-1 dimer
# T8 chain: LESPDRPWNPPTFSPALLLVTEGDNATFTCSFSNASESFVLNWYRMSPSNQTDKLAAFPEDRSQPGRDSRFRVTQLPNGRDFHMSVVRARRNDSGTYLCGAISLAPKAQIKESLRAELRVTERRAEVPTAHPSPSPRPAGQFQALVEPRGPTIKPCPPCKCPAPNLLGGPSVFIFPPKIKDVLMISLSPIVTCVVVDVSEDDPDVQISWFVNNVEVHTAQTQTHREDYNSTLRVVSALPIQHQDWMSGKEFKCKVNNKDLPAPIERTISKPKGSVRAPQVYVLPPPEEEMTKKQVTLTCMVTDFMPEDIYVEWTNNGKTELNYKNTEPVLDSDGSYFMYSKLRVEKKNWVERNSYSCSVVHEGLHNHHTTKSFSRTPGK
# monkey PD-1 with mFc [13] = biological target: T8, monkey PD-1 with mFc; test: SPR, captured mAb, 37 C;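 also: Real-time Biacore surface plasmon resonance biosensor readout of PD-1 reagent binding to purified anti-PD-1 monoclonal antibodies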
# [14] = biological target: T5, recombinant human PD-1 dimer expressed …; test: competition ELISA: 1.5 nM hPD-1-mFc to coated hPD-L1-hFc
# [15] = biological target: T5, recombinant human PD-1 dimer expressed …; test: competition ELISA: 100 pM hPD-1-mFc to coated hPD-L2-hFc
# monkey PD-1 with mFc [16] = biological target: T8, monkey PD-1 with mFc; test: SPR, captured mAb, 37 C; no dissociation observed, kd fixed at 1.00E-05;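 as to 100 nM Monkey PD-1-mFc Bound (RU): Real-time Biacore surface plasmon resonance biosensor readout of PD-1 reagent binding to purified anti-PD-1 monoclonal antibodies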;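 as to koff: Real-time Biacore surface plasmon resonance biosensor readout of PD-1 reagent binding to purified anti-PD-1 monoclonal antibodies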;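 as to kon: Real-time Biacore surface plasmon resonance biosensor readout of PD-1 reagent binding to purified anti-PD-1 monoclonal antibodies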
# [17] = biological target: T9, human PD-1 dimer (human PD-1-mFc or human PD-1-hFc) (human, UniProt Q15116 25-170); test: SPR, mAb captured, 25C;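 also: surface plasmon resonance on Biacore, PD-1 flowed over captured anti-PD-1 antibodies, rate constants from a 1:1 binding model fit, KD taken as kd/ka and t½ as ln2/(60·kd)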
# T9 construct: also called hPD-1-mFc; hPD1-hFc
# T9 sequence (Q15116 25-170 C93S): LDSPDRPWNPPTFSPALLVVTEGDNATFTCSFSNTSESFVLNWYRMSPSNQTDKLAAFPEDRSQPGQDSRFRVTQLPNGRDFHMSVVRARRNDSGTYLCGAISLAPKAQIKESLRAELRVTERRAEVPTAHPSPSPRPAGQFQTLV
# [18] = biological target: T9, human PD-1 dimer (human PD-1-mFc or …); test: SPR, mAb captured, 37C;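 also: Real-time Biacore biosensor, PD-1 dimer flowed over anti-PD-1 antibody surface, rate constants fitted to a 1:1 model, KD derived as kd/ka and t½ as ln2/(60·kd)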
# [19] = biological target: T10, recombinant cynomolgus monkey PD-1 expressed with a C-terminal myc-myc-hexahistidine tag (cynomolgus monkey (Macaca fascicularis)); test: SPR, mAb captured, 25C; 25 C
# T10 construct: monomeric; also called MfPD-1-MMH
# T10 chain: T2 chain
Binder,ratio of MFI HEK293/hPD-1 to HEK293 parental cells [3],Emax mean [%] @ 100 nM [4] [%],MFI [5] [MFI],Max Geom. Mean MFI @ 100 nM [6] [MFI],% Blocking [7] [%],binding of the mixture (nm) [7] [nm],Max Geom. Mean MFI @ 100 nM [9] [MFI],binding of the mixture (RU) [10] [RU],500 nM of anti-PD-1 monoclonal antibody (RU) [11] [RU],Kd (monkey PD-1 with mFc [12]) [nM],t1/2 (monkey PD-1 with mFc [12]) [min],100 nM Monkey PD-1-mFc Bound (RU) (monkey PD-1 with mFc [13]),further results
B1,–,–,–,–,–,–,–,–,–,–,–,–,Kd [1]: 4.33 nM; t½ [1]: 9.4 min; Kd [2]: 3.09 nM
B2,18,103,4950,1400,-229,0.23,–,–,–,–,–,–,–
B3,–,–,–,–,–,–,32200,-7,-7,–,–,–,Emax mean [%] @ 100 nM [8]: 150%; % Blocking [10]: 107%
B4,–,–,26200,–,–,–,–,1,0,0.48,200,98,% blocking at 200 nM antibody [14]: 88%; IC50 [14]: 2.4 nM; % blocking at 100 nM antibody [15]: 94%; Kd (monkey PD-1 with mFc [16]): ≤ 0.049 nM; t1/2 (monkey PD-1 with mFc [16]): ≥ 1160 min
B5,–,–,–,–,–,–,–,–,–,–,–,–,Kd [17]: 1.75 nM; koff [17]: 0.000177 s⁻¹; kon [17]: 101000 M⁻¹ s⁻¹; t½ [17]: 65 min; Kd [18]: 9.07 nM; koff [18]: 0.00211 s⁻¹; kon [18]: 233000 M⁻¹ s⁻¹; t½ [18]: 5 min; Kd [19]: 551 nM; koff [19]: 0.0191 s⁻¹; kon [19]: 34600 M⁻¹ s⁻¹; t½ [19]: 0.6 min
B6,6.8,102,1940,639,–,–,–,–,-2,54.2,4,6,100 nM Monkey PD-1-mFc Bound (RU) (monkey PD-1 with mFc [12]): 17 RU; koff (monkey PD-1 with mFc [12]): 0.00309 s⁻¹; kon (monkey PD-1 with mFc [12]): 57000 M⁻¹ s⁻¹; Kd (monkey PD-1 with mFc [13]): 86.3 nM; koff (monkey PD-1 with mFc [13]): 0.0105 s⁻¹; kon (monkey PD-1 with mFc [13]): 121000 M⁻¹ s⁻¹; t1/2 (monkey PD-1 with mFc [13]): 1.1 min
B7,2.8,109,817,624,114,-0.01,–,–,–,–,–,–,–
B8,–,–,–,–,–,–,15200,-6,-5,0.621,116,47,Emax mean [%] @ 100 nM [8]: 110%; 100 nM Monkey PD-1-mFc Bound (RU) (monkey PD-1 with mFc [12]): 60 RU; koff (monkey PD-1 with mFc [12]): 9.92e-05 s⁻¹; kon (monkey PD-1 with mFc [12]): 160000 M⁻¹ s⁻¹; Kd (monkey PD-1 with mFc [13]): 1.71 nM; koff (monkey PD-1 with mFc [13]): 0.00029 s⁻¹; kon (monkey PD-1 with mFc [13]): 170000 M⁻¹ s⁻¹; t1/2 (monkey PD-1 with mFc [13]): 40 min; % Blocking [10]: 106%
B9,92.3,135,24200,–,29,0.05,35600,–,–,–,–,–,–
